{
  "source": "IntAct's records for PubMed 25910212",
  "parents": {"B1": {"name": "Pyridoxine-5'-phosphate oxidase (Homo sapiens), Q9NVS9 (parent)", "chain": "MTCWLRGVTATFGRPAEWPGYLSHLCGRSAAMDLGPMRKSYRGDREAFEETHLTSLDPVKQFAAWFEEAVQCPDIGEANAMCLATCTRDGKPSARMLLLKGFGKDGFRFFTNFESRKGKELDSNPFASLVFYWEPLNRQVRVEGPVKKLPEEEAECYFHSRPKSSQIGAVVSHQSSVIPDREYLRKKNEELEQLYQDQEVPKPKSWGGYVLYPQVMEFWQGQTNRLHDRIVFRRGLPTGDSPLGPMTHRGEEDWLYERLAP"}, "B2": {"name": "Carbonic anhydrase-related protein (Homo sapiens), P35219 (parent)", "chain": "MADLSFIEDTVAFPEKEEDEEEEEEGVEWGYEEGVEWGLVFPDANGEYQSPINLNSREARYDPSLLDVRLSPNYVVCRDCEVTNDGHTIQVILKSKSVLSGGPLPQGHEFELYEVRFHWGRENQRGSEHTVNFKAFPMELHLIHWNSTLFGSIDEAVGKPHGIAIIALFVQIGKEHVGLKAVTEILQDIQYKGKSKTIPCFNPNTLLPDPLLRDYWVYEGSLTIPPCSEGVTWILFRYPLTISQLQIEEFRRLRTHVKGAELVEGCDGILGDNFRPTQPLSDRVIRAAFQ", "partner": "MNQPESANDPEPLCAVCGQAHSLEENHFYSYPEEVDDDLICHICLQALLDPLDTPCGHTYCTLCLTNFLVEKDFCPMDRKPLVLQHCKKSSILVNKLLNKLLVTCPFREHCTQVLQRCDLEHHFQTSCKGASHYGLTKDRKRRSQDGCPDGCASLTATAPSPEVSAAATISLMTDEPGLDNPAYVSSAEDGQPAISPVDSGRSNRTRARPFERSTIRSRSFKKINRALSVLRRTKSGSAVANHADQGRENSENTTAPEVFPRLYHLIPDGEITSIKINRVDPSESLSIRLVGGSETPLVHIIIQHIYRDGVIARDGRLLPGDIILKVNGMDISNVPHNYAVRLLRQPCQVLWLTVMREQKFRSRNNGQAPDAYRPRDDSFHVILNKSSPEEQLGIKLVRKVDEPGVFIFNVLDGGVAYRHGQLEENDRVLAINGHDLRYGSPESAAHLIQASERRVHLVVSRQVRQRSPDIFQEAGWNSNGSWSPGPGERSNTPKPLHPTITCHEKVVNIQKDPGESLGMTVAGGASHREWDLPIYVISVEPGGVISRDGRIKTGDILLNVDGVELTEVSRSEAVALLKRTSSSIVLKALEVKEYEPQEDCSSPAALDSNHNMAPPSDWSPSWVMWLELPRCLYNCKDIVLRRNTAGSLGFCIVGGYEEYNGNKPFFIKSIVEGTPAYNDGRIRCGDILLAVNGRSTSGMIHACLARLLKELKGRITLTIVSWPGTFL"}, "B3": {"name": "U4/U6 small nuclear ribonucleoprotein Prp31 (Homo sapiens), Q8WWY3 (parent)", "chain": "MSLADELLADLEEAAEEEEGGSYGEEEEEPAIEDVQEETQLDLSGDSVKTIAKLWDSKMFAEIMMKIEEYISKQAKASEVMGPVEAAPEYRVIVDANNLTVEIENELNIIHKFIRDKYSKRFPELESLVPNALDYIRTVKELGNSLDKCKNNENLQQILTNATIMVVSVTASTTQGQQLSEEELERLEEACDMALELNASKHRIYEYVESRMSFIAPNLSIIIGASTAAKIMGVAGGLTNLSKMPACNIMLLGAQRKTLSGFSSTSVLPHTGYIYHSDIVQSLPPDLRRKAARLVAAKCTLAARVDSFHESTEGKVGYELKDEIERKFDKWQEPPPVKQVKPLPAPLDGQRKKRGGRRYRKMKERLGLTEIRKQANRMSFGEIEEDAYQEDLGFSLGHLGKSGSGRVRQTQVNEATKARISKTLQRTLQKQSVVYGGKSTIRDRSSGTASSVAFTPLQGLEIVNPQAAEKKVAEANQKYFSSMAEFLKVKGEKSGLMST", "partner": "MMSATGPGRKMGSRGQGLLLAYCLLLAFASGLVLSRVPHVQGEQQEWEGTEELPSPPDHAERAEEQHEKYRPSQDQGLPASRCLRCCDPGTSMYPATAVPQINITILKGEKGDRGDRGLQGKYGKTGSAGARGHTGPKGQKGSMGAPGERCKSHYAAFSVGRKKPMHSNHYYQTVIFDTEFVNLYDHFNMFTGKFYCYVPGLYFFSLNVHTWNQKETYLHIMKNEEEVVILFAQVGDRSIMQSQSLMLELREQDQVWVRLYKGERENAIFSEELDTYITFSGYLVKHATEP"}, "B4": {"name": "Beta-crystallin A4 (Homo sapiens), P53673 (parent)", "chain": "MTLQCTKSAGPWKMVVWDEDGFQGRRHEFTAECPSVLELGFETVRSLKVLSGAWVGFEHAGFQGQQYILERGEYPSWDAWGGNTAYPAERLTSFRPAACANHRDSRLTIFEQENFLGKKGELSDDYPSLQAMGWEGNEVGSFHVHSGAWVCSQFPGYRGFQYVLECDHHSGDYKHFREWGSHAPTFQVQSIRRIQQ", "partner": "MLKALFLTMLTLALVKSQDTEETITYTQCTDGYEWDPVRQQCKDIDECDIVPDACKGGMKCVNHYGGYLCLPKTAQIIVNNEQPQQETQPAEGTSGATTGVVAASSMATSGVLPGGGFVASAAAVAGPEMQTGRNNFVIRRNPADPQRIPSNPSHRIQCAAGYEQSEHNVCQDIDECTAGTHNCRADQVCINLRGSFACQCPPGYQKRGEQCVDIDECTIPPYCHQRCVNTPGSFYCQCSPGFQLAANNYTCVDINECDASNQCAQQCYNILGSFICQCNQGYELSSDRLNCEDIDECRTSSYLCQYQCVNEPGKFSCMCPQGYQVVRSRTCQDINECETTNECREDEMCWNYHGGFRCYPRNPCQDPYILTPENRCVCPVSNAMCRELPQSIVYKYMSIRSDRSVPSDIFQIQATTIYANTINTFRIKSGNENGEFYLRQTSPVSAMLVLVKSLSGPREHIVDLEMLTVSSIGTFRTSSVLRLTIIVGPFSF"}, "B5": {"name": "Phakinin (Homo sapiens), Q13515 (parent)", "chain": "MSERRVVVDLPTSASSSMPLQRRRASFRGPRSSSSLESPPASRTNAMSGLVRAPGVYVGTAPSGCIGGLGARVTRRALGISSVFLQGLRSSGLATVPAPGLERDHGAVEDLGGCLVEYMAKVHALEQVSQELETQLRMHLESKATRSGNWGALRASWASSCQQVGEAVLENARLMLQTETIQAGADDFKERYENEQPFRKAAEEEINSLYKVIDEANLTKMDLESQIESLKEELGSLSRNYEEDVKLLHKQLAGCELEQMDAPIGTGLDDILETIRIQWERDVEKNRVEAGALLQAKQQAEVAHMSQTQEEKLAAALRVELHNTSCQVQSLQAETESLRALKRGLENTLHDAKHWHDMELQNLGAVVGRLEAELREIRAEAEQQQQERAHLLARKCQLQKDVASYHALLDREESG", "partner": "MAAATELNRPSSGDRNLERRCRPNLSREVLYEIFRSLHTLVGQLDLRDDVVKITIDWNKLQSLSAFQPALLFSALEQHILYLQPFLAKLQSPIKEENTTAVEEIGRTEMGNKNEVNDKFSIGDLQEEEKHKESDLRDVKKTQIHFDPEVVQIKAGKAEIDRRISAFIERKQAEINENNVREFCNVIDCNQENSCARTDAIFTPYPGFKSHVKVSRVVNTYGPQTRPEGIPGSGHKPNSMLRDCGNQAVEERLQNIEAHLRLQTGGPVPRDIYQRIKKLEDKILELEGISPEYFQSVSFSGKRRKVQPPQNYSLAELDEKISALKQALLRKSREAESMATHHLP"}, "B6": {"name": "U4/U6 small nuclear ribonucleoprotein Prp31 (Homo sapiens), Q8WWY3 (parent)", "chain": "B3 chain", "partner": "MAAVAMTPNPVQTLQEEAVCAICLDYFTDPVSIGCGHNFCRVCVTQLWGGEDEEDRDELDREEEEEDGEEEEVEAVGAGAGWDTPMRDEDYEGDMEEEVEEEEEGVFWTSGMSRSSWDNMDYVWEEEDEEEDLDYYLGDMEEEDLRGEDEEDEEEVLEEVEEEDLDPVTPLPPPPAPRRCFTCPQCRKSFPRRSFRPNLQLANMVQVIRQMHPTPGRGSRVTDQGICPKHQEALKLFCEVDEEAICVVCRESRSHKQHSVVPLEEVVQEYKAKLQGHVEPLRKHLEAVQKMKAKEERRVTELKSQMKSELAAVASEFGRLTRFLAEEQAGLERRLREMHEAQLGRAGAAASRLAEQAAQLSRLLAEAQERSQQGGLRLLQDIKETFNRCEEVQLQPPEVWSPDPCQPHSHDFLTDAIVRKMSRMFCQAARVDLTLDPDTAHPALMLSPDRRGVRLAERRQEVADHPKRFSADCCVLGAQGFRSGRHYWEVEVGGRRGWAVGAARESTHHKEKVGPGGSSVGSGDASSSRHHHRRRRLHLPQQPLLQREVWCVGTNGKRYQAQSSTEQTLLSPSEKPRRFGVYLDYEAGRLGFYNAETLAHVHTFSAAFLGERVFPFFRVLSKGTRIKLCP"}},
  "data": [
    {"variants_of": "B1", "conditions": "with AGTRAP", "values": [
      {"variant": "R95C", "effect of a mutation on the interaction": "disrupting interaction strength"}
    ]},
    {"variants_of": "B1", "conditions": "with CMTM5, Q96DZ9-2", "values": [
      {"variant": "R95C", "effect of a mutation on the interaction": "disrupting interaction strength"}
    ]},
    {"variants_of": "B2", "conditions": "with lnx1_human LNX1, Q8TBB1", "values": [
      {"variant": "S100P", "effect of a mutation on the interaction": "disrupting interaction strength"}
    ]},
    {"variants_of": "B3", "conditions": "with C1QTNF1, Q9BXJ1-2", "values": [
      {"variant": "L107V", "effect of a mutation on the interaction": "with no effect"}
    ]},
    {"variants_of": "B4", "conditions": "with fbln3_human EFEMP1, Q12805", "values": [
      {"variant": "F94S", "effect of a mutation on the interaction": "disrupting interaction strength"},
      {"variant": "L69P", "effect of a mutation on the interaction": "disrupting interaction strength"},
      {"variant": "V36M", "effect of a mutation on the interaction": "disrupting interaction strength"}
    ]},
    {"variants_of": "B5", "conditions": "with MBIP", "values": [
      {"variant": "R339H", "effect of a mutation on the interaction": "with no effect"},
      {"variant": "A407D", "effect of a mutation on the interaction": "with no effect"}
    ]},
    {"variants_of": "B6", "conditions": "with tri41_human TRIM41, Q8WV44", "values": [
      {"variant": "L107V", "effect of a mutation on the interaction": "with no effect"}
    ]}
  ]
}
